In US20160199455:

Test system: T1, rBDD FVIII (recombinant B-domain deleted FVIII, REFACTO)
T1 sequence: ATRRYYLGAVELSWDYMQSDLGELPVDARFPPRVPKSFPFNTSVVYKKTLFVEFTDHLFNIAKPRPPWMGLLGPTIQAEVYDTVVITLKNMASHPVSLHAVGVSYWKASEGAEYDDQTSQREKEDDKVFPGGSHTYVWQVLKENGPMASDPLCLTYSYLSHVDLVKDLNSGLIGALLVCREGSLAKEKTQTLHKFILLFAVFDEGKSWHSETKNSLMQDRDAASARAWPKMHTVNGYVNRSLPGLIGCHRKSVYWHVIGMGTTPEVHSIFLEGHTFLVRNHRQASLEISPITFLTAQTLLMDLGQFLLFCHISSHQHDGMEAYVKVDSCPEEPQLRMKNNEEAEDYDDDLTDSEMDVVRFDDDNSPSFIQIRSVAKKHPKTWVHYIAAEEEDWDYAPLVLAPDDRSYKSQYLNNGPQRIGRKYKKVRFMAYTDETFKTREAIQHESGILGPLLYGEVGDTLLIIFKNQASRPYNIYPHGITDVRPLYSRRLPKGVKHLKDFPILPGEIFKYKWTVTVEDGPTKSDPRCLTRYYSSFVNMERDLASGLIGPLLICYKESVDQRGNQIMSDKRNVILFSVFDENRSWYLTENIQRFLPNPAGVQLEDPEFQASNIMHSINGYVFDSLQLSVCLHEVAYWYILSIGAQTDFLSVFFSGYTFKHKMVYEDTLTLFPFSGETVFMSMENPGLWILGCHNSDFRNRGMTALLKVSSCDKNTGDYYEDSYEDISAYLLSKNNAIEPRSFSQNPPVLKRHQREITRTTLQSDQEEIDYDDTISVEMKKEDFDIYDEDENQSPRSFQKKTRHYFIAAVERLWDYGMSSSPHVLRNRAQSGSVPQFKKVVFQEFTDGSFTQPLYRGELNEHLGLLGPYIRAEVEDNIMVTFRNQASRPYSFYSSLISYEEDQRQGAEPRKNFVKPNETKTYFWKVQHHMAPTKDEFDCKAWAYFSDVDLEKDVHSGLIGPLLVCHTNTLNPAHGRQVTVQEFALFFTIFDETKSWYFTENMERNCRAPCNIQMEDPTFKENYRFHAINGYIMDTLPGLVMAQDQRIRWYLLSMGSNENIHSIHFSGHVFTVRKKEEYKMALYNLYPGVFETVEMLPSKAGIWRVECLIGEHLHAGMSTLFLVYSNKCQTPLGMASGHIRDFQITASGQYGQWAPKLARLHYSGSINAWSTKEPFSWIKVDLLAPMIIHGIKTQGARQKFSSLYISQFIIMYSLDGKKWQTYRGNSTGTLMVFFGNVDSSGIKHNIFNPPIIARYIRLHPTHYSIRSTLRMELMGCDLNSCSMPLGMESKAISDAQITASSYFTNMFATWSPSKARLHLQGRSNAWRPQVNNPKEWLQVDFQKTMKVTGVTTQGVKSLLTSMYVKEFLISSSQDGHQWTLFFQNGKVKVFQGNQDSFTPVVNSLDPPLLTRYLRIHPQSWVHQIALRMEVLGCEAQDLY

| Substance | Km (activation of Factor X by the Xase complex) [µM] | Vmax (activation of Factor X by the Xase complex) [nM/min] | Vmax (FXa generation, varying FIXa) [nM/min] |
| --- | --- | --- | --- |
| Factor X (FX) | 0.051 | 73.5 |  |
| activated Factor IX (FIXa) |  |  | 4 |
